# Laboratory results from paper PMC7246916, “14-3-3 Proteins and Other Candidates form Protein-Protein Interactions with the Cytosolic C-terminal End of SOS1 Affecting Its Transport Activity” (International Journal of Molecular Sciences, 2020).
# T1: recombinant (10xHis)-labelled At14-3-3ω (Arabidopsis thaliana, UniProt Q01525 1-259)
# T1 construct: 14-3-3 isoform omega, Arabidopsis thaliana; Construct details are in the Suppl; Methods; also called His-tagged 14-3-3ω protein; source: host in the Suppl; Methods
# T1 sequence (looked up): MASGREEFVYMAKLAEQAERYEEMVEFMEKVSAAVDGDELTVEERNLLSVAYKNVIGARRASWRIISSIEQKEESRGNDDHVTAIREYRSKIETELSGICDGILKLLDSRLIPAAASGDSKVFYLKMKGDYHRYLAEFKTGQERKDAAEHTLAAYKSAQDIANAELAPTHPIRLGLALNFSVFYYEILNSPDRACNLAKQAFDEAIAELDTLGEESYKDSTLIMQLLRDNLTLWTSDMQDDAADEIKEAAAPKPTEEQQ
# Biological target: T1, recombinant (10xHis)-labelled At14-3-3ω
# Assay: peptide or protein array; 15-mer synthetic peptides of SOS1 from amino acid 446, overlapping by 12, spotted on a cellulose membrane; incubated with recombinant 10xHis-14-3-3ω; anti-His antibody, HRP-coupled anti-mouse antibody, ECL
# Settings: both partners purified
row,binding result,Binder
1,binds,"TRQNTMVESSDEEDE (SOS1 (NHX7), Arabidopsis thaliana; source: synthetic peptide, immobilized on a cellulose membrane) [SOS1 C-term 15-mer peptide, spot H13]"
2,binds,"NTMVESSDEEDEDEG (SOS1 (NHX7), Arabidopsis thaliana; source: synthetic peptide, immobilized on a cellulose membrane) [SOS1 C-term 15-mer peptide, spot H14]"
